Source: patent EP4785956A2 (CHUGAI SEIYAKU KABUSHIKI KAISHA, dated 2026)

Key:
[1] = biological target: T1, recombinant MG1-MG2 domain of human C5 beta-chain (human, UniProt P01031 20-225); test: SPR (BIACORE T200), antibody captured, MG1-MG2 domain injected, pH7.4, 37 degrees C
T1 construct: also called MG1-MG2 domain (1-225) of human C5

[2] = biological target: T2, recombinant human C5 (human, UniProt P01031 20-1676); test: SPR (BIACORE T200), ratio of kd of condition (2) and (1)
T2 construct: The same entry is used here for C5 in normal human serum in the functional rows; also called hC5; rhC5

Binder	binding result [1]	pH dependency (ratio of dissociation rate at pH5.8 to that at pH7.4) [2]
eculizumab-F760G4 (antibody, human IgG4 S228P, kappa) heavy: not shown light: DIQMTQSPSSLSASVGDRVTITCGASENIYGALNWYQQKPGKAPKLLIYGATNLADGVPSRFSGSGSGTDFTLTISSLQPEDFATYYCQNVLNTPLTFGQGTKVEIKRTVAAPSVFIFPPSDEQLKSGTASVVCLLNNFYPREAKVQWKVDNALQSGNSQESVTEQDSKDSTYSLSSTLTLSKADYEKHKVYACEVTHQGLSSPVTKSFNRGEC	no binding (tested: 20 nM and 40 nM)	
305LO20-SG115 (antibody) heavy: QVQLVESGGGLVQPGGSLRLSCAASGFTVHSSYYMAWVRQAPGKGLEWVGAIFTGSGAEYKAEWAKGRVTISKDTSKNQVVLTMTNMDPVDTATYYCASDAGYDYPTHAMHYWGQGTLVTVSSASTKGPSVFPLAPSSKSTSGGTAALGCLVKDYFPEPVTVSWNSGALTSGVHTFPAVLQSSGLYSLSSVVTVPSSSLGTQTYICNVNHKPSNTKVDKKVEPKSCDKTHTCPPCPAPELRRGPKVFLFPPKPKDTLMISRTPEVTCVVVDVSHEDPEVKFNWYVDGVEVHNAKTKPREEQYNSTYRVVSVLTVLHQDWLNGKEYKCKVSNKGLPSSIEKTISKAKGQPREPQVYTLPPSREEMTKNQVSLTCLVKGFYPSDIAVEWESNGQPENNYKTTPPVLDSDGSFFLYSKLTVDKSRWQQGNVFSCSVLHEALHAHYTRKELSLSP light: DIQMTQSPSSLSASVGDRVTITCRASQGISSSLAWYQQKPGQAPRLLIYGASETESGVPSRFSGSGSGTDFTLTISSLQPEDFATYYCQNTKVGSSYGNTFGGGTKVEIKRTVAAPSVFIFPPSDEQLKSGTASVVCLLNNFYPREAKVQWKVDNALQSGNSQESVTEQDSKDSTYSLSSTLTLSKADYEKHKVYACEVTHQGLSSPVTKSFNRGEC		17.5

Results, then the binder that gave them:

binding result [1]	pH dependency (ratio of dissociation rate at pH5.8 to that at pH7.4) [2]	Binder
	17.3	305LO20-SG422 (antibody) heavy: QVQLVESGGGLVQPGGSLRLSCAASGFTVHSSYYMAWVRQAPGKGLEWVGAIFTGSGAEYKAEWAKGRVTISKDTSKNQVVLTMTNMDPVDTATYYCASDAGYDYPTHAMHYWGQGTLVTVSSASTKGPSVFPLAPCSRSTSGGTAALGCLVKDYFPEPVTVSWNSGALTSGVHTFPAVLQSSGLYSLSSVVTVPSSSLGTKTYTCNVDHKPSNTKVDKRVESKYGPPCPPCPAPEFRRGPKVFLFPPKPKDTLMISRTPEVTCVVVDVSHEDPEVKFNWYVDGVEVHNAKTKPREEQYNSTYRVVSVLTVLHQDWLNGKEYKCKVSNKGLPSSIEKTISKAKGQPREPQVYTLPPSREEMTKNQVSLTCLVKGFYPSDIAVEWESNGQPENNYKTTPPVLDSDGSFFLYSKLTVDKSRWQQGNVFSCSVLHEALHAHYTRKELSLSP light: DIQMTQSPSSLSASVGDRVTITCRASQGISSSLAWYQQKPGQAPRLLIYGASETESGVPSRFSGSGSGTDFTLTISSLQPEDFATYYCQNTKVGSSYGNTFGGGTKVEIKRTVAAPSVFIFPPSDEQLKSGTASVVCLLNNFYPREAKVQWKVDNALQSGNSQESVTEQDSKDSTYSLSSTLTLSKADYEKHKVYACEVTHQGLSSPVTKSFNRGEC
	20.2	305LO23-SG115 (antibody, V domains shown) VH: QVQLVESGGGLVQPGGSLRLSCAASGFTVHSSYYMAWVRQAPGKGLEWVSGIFTGSGATYKAEWAKGRVTISKDTSKNQVVLTMTNMDPVDTATYYCASDAGYDYPTHAMHYWGQGTLVTVSS VL: DIQMTQSPSSLSASVGDRVTITCRASQGISSSLAWYQQKPGQAPRLLIYGASTTQSGVPSRFSGSGSGTDFTLTISSLQPEDFATYYCQNTKVGSSYGNTFGGGTKVEIKR
